Test results published in paper PMC3695229 (2013).
* marks the point of attachment. Biotin = O=C1N[C@H]2[C@H](CS[C@H]2CCCCC(=O)*)N1

T1: TGF-β2 (Homo sapiens, UniProt P61812)
T1 chain: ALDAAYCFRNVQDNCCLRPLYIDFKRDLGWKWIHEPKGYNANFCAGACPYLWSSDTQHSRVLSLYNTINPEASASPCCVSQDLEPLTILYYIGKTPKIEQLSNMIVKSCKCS


Target: T1, TGF-β2
Experiment: SPR

Kd [µM]	Binder
0.008	MIWTMMQNKKTFTKP [P1-mZP ZP-C peptide]
~0.35	Biotin-DASIIWAMMQNKKTFTK-NH2 [P5-hZP 734-750]
~0.19	Biotin-DATMIWTMMQNKKTFTK-NH2 [P4-mZP 732-748]
